Experimental data taken from US7291458B2, “Leptin-mediated gene-induction” (Vlaams Interuniversitair Instituut Voor Biotechnologie VZW, priority 1998, dated 2007).

System: PC12-LR8 cells
Experiment: Northern blot analysis of gene induction in non-differentiated PC12-LR8 cells
Type: cell-based, rat
Description: PC12-LR8 cells were treated with leptin (L), forskolin (F), or a combination of both (F/L) for the indicated length of time. Hybridization with the mouse b-actin probe was used as a control. NI stands for non-induced control cells. Sizes of transcripts are shown on the right. Exposure times to Biomax MS films were 5.5 days for LIP-I and LIP-II, and 1 day for the corresponding b-actin blot, all at −80° C.
FIG. 6A. Induction patterns of Reg I, HIP-I and peripherin after a 12 hours stimulation with forskolin (F), leptin (L), forskolin plus leptin (F/L), hyper-IL-6 (H) or forskolin plus hyper-IL-6 (F/H). Untreated cells were analyzed as a control (NI). Exposure times to BioMax MS films for Reg I, HIP-I and b-actin were 4 days, 5 days and 3 hours, respectively; and in a separate experiment for peripherin and b-actin, 16 hours and 2 days.
FIG. 6B Induction patterns of PAP I, PAP III, MT-II, Fnk, MRF-1, SOCS-3 and STAT-3 after stimulation with leptin (L) or hyper-IL-6 (H), compared to non-treated control cells (NI). In all cases stimulation was for 12 hours, with the exception of PAP III where stimulation was for 24 hours. b-actin hybridization patterns are shown as control. Exposure times to BioMax MS films at −80° C. were 16 hours for PAP I and 1 hour for b-actin; 4 days for PAP III and 1 hour for b-actin; 3 days for MT-II and Fnk, and2 days for b-actin; 3 days for MRF-1, 2.5 days for SOCS-3 and2 days for b-actin; and 16 hours for STAT-3 and 3 hours for b-actin.
FIG. 8A. Northern blot analysis of the immediate early response genes. PC12-LR8 cells were left untreated (NI: non induced), or were treated with forskolin (F), leptin (L) or a combination of both (F/L) for the indicated time points. Exposure times to BioMax MS films for the different transcripts were Fnk: 6 days, MT-II: 5 days, MRF-1: 6 days, SOCS-3: 14 hours, STAT-3: 14 hours, b-actin: 5 hours.
FIG. 8B. Immediate early response gene-set: early kinetics. PC12-LR8 cells were treated with leptin alone (L) or with a combination of leptin and forskolin (F/L) for the indicated length of time. Exposure time to BioMax MS films were: Fnk: 3 days, MT-II: 3 days, MRF-1: 3 days, SOCS-3: 2.5 days, STAT-3: 2.5 days, b-actin: 1 hour.
FIG. 8C. Northern blot analysis of the late target genes. PC12-LR8 cells were left untreated (NI), or were treated with forskolin (F), leptin (L) or a combination of both (F/L) for the indicated length of time. Exposure times to BioMax MS films were: Ann VIII: 6 days, PAP I: 14 hours, Squalene Epoxidase: 5 days, UGT: 5 days, b-actin: 14 hours.
PC12 cells were cultured in RPMI 1640 medium with glutamax-I (GibcoBRL) containing 10% heat-inactivated foetal calf serum (iFCS) and gentamycin (50 μg/ml). The cells were treated with medium alone or supplemented with 100 ng/ml of mouse leptin (R&D Systems), with forskolin (Sigma) at a concentration of 10 μM or with a combination both, unless otherwise indicated.
Total RNA was prepared from PC12 cells using RNeasy™ method (Qiagen). RNA (10 μg) was separated on a 1.5% agarose,6% formaldehyde gel, transferred to a nylon membrane (Zeta-Probe GT Genomic, Bio-Rad), and cross-linked using UV radiation. The filters were hybridized for one hour at 68° C. in ExpressHyb™ solution (Clontech) with [^32P]dCTP-labeled DNA-probes and washed 3 times with 2×SSC, 0.05% SDS at room temperature and twice in 0.1×SSC, 0.1% SDS at 50° C. Autoradiographs were obtained by exposing the blots to BioMax MS film (Kodak) with intensifying screens at −70° C. All Northern blots were normalized by hybridization using a b-actin probe.

B1: leptin: mouse leptin (R&D Systems), ob gene product, used on PC12 cells at 100 ng/ml (protein)
chain: VPIQKVQDDTKTLIKTIVTRINDISHTQSVSAKQRVTGLDFIPGLHPILSLSKMDQTLAVYQQVLTSLPSQNVLQIANDLENLRDLLHLLAFSKSCSLPQTSGLQKPESLDGVLEASLYSTEVVALSRLQGSLQDILQQLDVSPEC
For B1, the “kinetics of synthesis of SOCS-3 mRNA” value (2 hours post stimulation) was “rapid decline”, the “time of optimal mRNA levels post induction” value (Annexin VIII, Squalene epoxidase) was “over 96 hours” and the “time of induction of immediate early response genes” value (Fnk, MT-II, MRF-1, STAT-3, SOCS-3, leptin treatment) was at most 4 h. For the same molecule, the “time of optimal mRNA levels post induction” value (PAP I, UGT) was 22 h, the “time of induction of late activated target genes after stimulus” value (PAP I, UGT, Ann VIII, squalene epoxidase, leptin treatment) was at least 6 h and the “induction of HIP-I and Reg transcripts” value (RDA hyper-IL-6 versus leptin) was “not induced”. The “time of optimal stimulation post induction” value (SOCS-3) was 30 min, the “time of optimal stimulation post induction” value (STAT-3) was 480 min and the “induction of PAP I and PAP III transcripts” value (without forskolin) was “requires forskolin co-stimulation”.
